Measured values published in the nanobody polyreactivity screen of Harvey et al. (2022).

Test: yeast display, Sf9 membrane polyspecificity reagent, FACS + sequencing; frameworks hold sequencing errors
In short: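 Using colony PCR, genes from sorted yeast display clones were amplified, then sequenced on MiSeq at 2 × 250 and filtered by CDR length. The clones had been stained with 10% biotinylated, detergent-solubilized Sf9 membrane reagent for 1 hour at 4 °C and sorted by FACS into low and high (top ~1%) gates on anti-HA and streptavidin fluorescence. Polyreactivity labels come from the gate of origin.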

| Sequence | polyreactivity (PSR sort gate) |
| --- | --- |
| KVQLVESGGGLVQAGGSLGLSCAASGSIFPSNFMGCYRQAPGKERELFAAISNTGSTYYADSVKGRVTISRDNAKNTVYLQMNSLKPEDTAVYYCAAEYWSYAHGGQLYGYDYWGQGSQVTVSS | low polyreactivity |
| KVQLVESGGGLVQAGGSLRFSCAASGFIFRNYAMGWYRQAPGKERELVAAITARGTRTYYSDSVKGRFTISRDNAKNTVYLQMNSLKPEDTAVYYCAAVVLPSRQYDYWGQGTQVTVSS | high polyreactivity |
| KVQLVESGGGLVQAGGSLRFSCAASGSTFYIYAMGWYRPAPGKERELVATISSTGSTHYADSVKGRFTLSRDNAKNTVYLQMISLKPEDTAVYYCNPVYFGRYSRRDHWGQGTQVTVSS | high polyreactivity |
| KVQLVESGGGLVQAGGSLRLSCAASGFTFLRYAMGGYRQAPGKERELVAAIRFSGGSTYYADSVKGRFTISRDNAKNNVYLQMNSLKPEDTAVYYCAAYIRSYGYDYWGQGTKVTVSS | high polyreactivity |
| KVQLVESGGGLVQAGGSLRLSCAASGIIFNLYAMGWSRQAPGKERELVAAITSSGTSTYYADSVKGRFTISRDNAKNTLYLQMNSLKPEDTAVYYCAADRGFYYFVEYDYWGQGTQVTVSS | high polyreactivity |
| KVQLVESGGGLVQAGGSLRLSCAASGRTFRTYAMGWYRQAPGKERELVAANSSGGSTNYADSVKGRFTISRDNAKNTVYLQMNSLKPEDTSVYYCATRPTSDFVKRRVYEWLDYWGQGTQVTVSS | low polyreactivity |
| KVQLVESGGGLVQAGGSLRLSCAASGRTFWYYAMGWYRLSPGKERELVAVITSVSSTYYADSVKGRFTISRDNAKNTVYLQMNSLKPEDTAVYYCAVGRTYRRYSAASYNYWGQGTQVTVSS | high polyreactivity |
| KVQLVESGGGLVQAGGSLRLSCAASGSIFDYYAMGWYRQAPGKEREFVAAISISGGSTNYADSVKGRFTISRDNAKNTVYLQMNSLKPEDTAVYYCAATSRWSSYGFYVQYNYWGQGSQVTVSS | high polyreactivity |
| KVQLVESGGGLVQAGGSLRLSCAASGSILSPNAMGWYRQAPGKERELVAAINSGGGSTYYADSVKGRFTLSRDNAKNTVYLQMNSLKPEDTAVYYCAADHYYYRSRAYTYIIYDYWGQGTQVTVSS | low polyreactivity |
| KVQLVESGGGLVQAGGSLRLSCAASGSTFIGNAMGWYRQAPGKERELVAAISRTGGSTYADSVKGRFTISRDNAKNTVYLQMNSLKPEDTAVYYCNAVRWYYDYWGQGTQVTVSS | high polyreactivity |
| KVQLVESGGGLVQAGGSLRLSCAASGSTFRTYAMGWYRQAPGKERELVADITWRGGSTYYADSVKGRFTISRDNAKNTDYFQMNSLKPEDTAVYYCATDRGPEVVLYVYWGQGTQVTVSS | low polyreactivity |
| KVQLVESGGGLVQAGGSLRLSCAASGTSSRYVMGLYRQSTGKERELVAAISWSGDSTYYADSVKGRFTISRDNAKNTVNLQMNSLKPEDTAVYYRAKDADFGLGATSYLEYDYWGQGTQVTVSS | low polyreactivity |
| KVQLVESGGGLVQAGGSLRLSCDASGSIFTLNAMGWYRQAPGKARELVAAISSGGGTYYSDSVKGRFTISRDNAKNTVYLQMNTLKPEDSAVYYCAAEHYILDDYLCDYDYWGQGTQVTVSS | high polyreactivity |
| LDQLVESGGGLVQAGGSLRLSCAASGSIFGPNAMGWNRKAPGKERELVAAISWSGASTYYADSVKGRFTITRDNEKNTVYLQMNSLKPEDTAVYYCAADYYGVSGSGYGYWGQGTQVTVSS | low polyreactivity |
| LLQLQESGGVLVQAGCRLRLICAASGSISVTRAMCWYSQAPGKERELVASTTGGSNNADSVNGRFTISRDNAKTTVYLQMNSLKPEDTAVYYCATEYYGPVYDLDYDYCGQGTQVTVSS | low polyreactivity |
| LVQLQESGGGLVQAGGSLRLSCAASGTITPGGYKGWYRQAPGKERELVASINVGGSTNYADSVKGRFTISRDNAKKTVYLQMKSLKPEDNAVYYCAVWGRNRLQLSYWGQGTQVTVSS | low polyreactivity |
| LVQLQESGGGLVQEGGSLRMSCAASGTISPGGYMGWYRQAPGKERELVASINVGGSTNYADSVKGRFTISRDNAKNTVYLQMNSLKPEDNAVYYCAVWGRNRLQLSYWGQGTQVTVSS | low polyreactivity |
| LVQLVESGGCLVQAGGSLRVSCAASGTIFQIKAMGWYRQAPGIEREKVATIRWRGSSTYYADSVKGRFTISRDNAKNTVYLQKNSLKPEDTAVYYSAARAGTLNSGGYYSWGQGTQVSVSS | high polyreactivity |
| LVQLVESGGGLVQAGGSLRLSCAASGRTFRLNALGWYRPAPGNERELVARITGSSGGSTYSADSVKGRFTISRDNAKNTVYLQMNSLKPEDTAVYYCAARYTPRGKRYDYWGQGTQVTGSS | high polyreactivity |
| LVQLVESGGGLVQAGGSLRLSCAASGSIFRYYVMGWYRQAPGKDRELVAAISTGDRTNYADSVKGRFTISRDNPKKTVYLQMNSQKPEDTAVYYCNADYVVGWARLEFNYWGQGTQVTVSS | low polyreactivity |
| LVQLVESGGGLVQAGGSLRLSCAASGSLFVVTAMGWYRQAPGKERELVAAFSSGGRTYYADSVKGRFTISRDNAKNTVYLQMNSVKPEDTAVYYCAAGGWRGHCYWGQGTQVTVSS | high polyreactivity |
| LVQLVESGGGLVQAGGSLSLSCAAYGRTFAKNAMGWYRQAPGKERDLVAVINRSGGSTYADSVKGRFTISRDNAKNTVYLQMNSLKPEDTAVYYWADYYFRSYSKTYIYPFDYWGQGSQVTVSS | low polyreactivity |

| Sequence | polyreactivity (PSR sort gate) |
| --- | --- |
| LVQLVESGGRLVQAGGSLRLSCAASGNIFWYAMGWYRQAPGKERELVAAITYRGSTTYFAYSVKGRVTISRDKAKNTVYLQMNSLHPEDTAVYYCAARASYTRRHVGRPYDYWGQGTQVTVSS | high polyreactivity |
| PVQHVESGGGLVQAGGSLRLSCAASGSTLRTYAMGWYRQAPGKERELVAAISFSTTSTYYADSVKGRFTISRDNAKNTVYLQMNSLKPEDTADYYCAAGPRTRYQPDLPGCYYSWGQGTQVTVSS | high polyreactivity |
| PVQLVDSGGGLVQAGGSLRLSCAASGKIFFGYTMGWYRTAPGKERELVAAITYRGGRTYYADSEKGRFTISRDNAKHTVYLQMNSLKPEDTAVYYFAVGGSGYGRYGGGYARDYWGQGTQVTVSS | high polyreactivity |
| PVQLVESGGGLGQAGGSLSLRCAASGSIFTYYAMVWYRQAPGKERELVADISNSGSTYYADSVNGRFTISRDNAKNTVYLQMNRLKPEDSAVSSCNAEYHDLYDYWGQGTQVTVSS | low polyreactivity |
| PVQLVESGGGLVQAGGSLRLSCAASGFTFFYYAMGGYRQGPGKERELVAALNWSGGRTYYADSVKGRFTISRDNAKNTVYLQRNSLKPEDTAVYYCAVDRSWSTRYPAYPGGYWGQGTQVTVSS | high polyreactivity |
| PVQLVESGGGLVQAGGSLRLSCAASGFTLYDYAMGWYRPAPGKERELVAAISRSGGRTYYADSVKGRFTISRDNAKNTVYLQMNSLKPEDTAVYYCAADILRGQWYEYDYWGQGTQVTVSS | high polyreactivity |
| PVQLVESGGGLVQAGGSLRLSCAASGRIFPSYAMGWYRQAPGKERELVATINGDGGSTYYADSVKGRFTISRDNAKNTVYLQMNSLKPEDTAVYYCAKRYPFAAEYDYWGQGTQVTVSS | low polyreactivity |
| PVQLVESGGGLVQAGGSLRLSCAASGRTFGLNGKGWYRQSPGKEREFVATITGSGTSTYYADSVKGRFTISRDNAKNTVYLQMNSLKPEDSAVYFCAALSGLWGYHYYHEYYYWGQGTQVTVSS | low polyreactivity |
| PVQLVESGGGLVQAGGSLRLSCAASGRTFPFYGMGWYRQAPGKERELVAAISISGGSTYYADSVKGRFTISRDNAKNTVYVQMNSLKPEDTAVYYCAAVGPRSYGFGNGYWGQGTQVTVSS | high polyreactivity |
| PVQLVESGGGLVQAGGSLRLSCAASGSTFRFYTMGWYRQAPGKERELVAAISGSGGSTYYADSVKGRFTISRDNAKNTVYLQMNSLIPEDPAVYFCAADKSRNASHRGYWGQGTQVTVSS | low polyreactivity |
| PVQLVESGGGLVQAGGSLRLSFAASGRTFWVYAMGWYRQAPGKERELVAAINRRGGGTYYADSVKGRFTISRDNAKNTVYLQMNSLKPEDTPVYYCAAVTRNQGSYRYYYWGQGTQVTVSS | high polyreactivity |
| QAQLEESGGGLVQAVGSLRLSCAASGRTFTNNDMGWYIQAPGKERELVAAIRWSGGSTYYADSVKGRFTISRDNAKNTVYFQMNSLKPEDTAVYYCAKGYGYVEAVIVQYDYWGQGTQVTVSS | low polyreactivity |
| QAQLKDSCGGLVQAGGSLRLSCPASGNNTSEYYMGCCRQAPGKGREFVDAIDYGGTTNYADNVKGRFTISRDNAKNTVYLQMNSLRPEDTALYYCAASWDTIGLFAYWGQGSQVTVSS | high polyreactivity |
| QAQLVESGGGLVQAGRSLRLSCAASGSTFRWYAMGWYRQAPGKERELVAAITSSGSTYYADSVKGRFTISRDNAKTTVYLQMNSLKPEDTAVYYCAARANGYWNTYEHDYWGQGIQVTVSS | low polyreactivity |
| QAQLVESGGGLVQSGGSLRLSCAASGSIFRPYAMGWYRQAPGKERELVAAISSSGGGTYYADSVKGRFTISRDNAKNTVYLQMNILKPEDTSVYLYGSWGQGTQVNVSS | low polyreactivity |
| QDHLVESGGGLVQAGGSLRLSCAASGRTFGRNAMGWYRQAPGKERDFVAAITSSGGSTYYADSVKGRFTISRDNAKNTVYFQMNSLKPEDSAVFYCARSTRYYSWRRMDYWGQGTQVTVSS | high polyreactivity |
| QDHLVESGGGLVQAGGSLRLSCAASGSISWKNAMGWYRQAPGKERELVAAISSTVTYYADSVKGRFTISRDNAKNTVYLQMNSLKPEDTAVYYCAAVYLGYTTLYTGDYCGQGTQVTVSS | low polyreactivity |
| QDLLVDSGGGLVQAGGSLRVSCAASGYTRFYAMGWYRQAPGKERELVAAISSSGGTTYYADSVKGRFTISRDNAKNNVYLQMNSLKPEDTAVYYCAKFLSYSRTLYDYWGQGTQVTVSS | high polyreactivity |
| QDLLVESGGGLLQAGGSLRLICAASGYTFTYYAMGWYRQAPGKERELVAAINYSGGRTDYADSVKGRFTLSRDNAKNTVYLQKNSMNPEDTAVYYCAAYTRNGDFDYWGQGTQVTVSS | high polyreactivity |
| QDLLVESGGGLVQAGGSLRLSCAASGSIFDDYAMGWYRQAPGKERELVAAISSSGTSTYYADSVKGRFTISRDHAKNTVYLQMNSLIPEYTAVYYCAARSAILKSGYLKDYWGQGTQVTVSS | low polyreactivity |
| QDPLEESGGGLVQAGGSLRLSCAASGFTFTDYAMGWTRQAPGKERQLVAVISRSGGSTNYADSVKGRFTISRDKAKNTVYLQMNCLKPEDTAVYYCNAGKYLYRHGFLSSGDMYYWGQGTQVTVSS | high polyreactivity |
